B1: 1ZHC (parent)
chain: HEFRDEISVLKANNPHFDKIFEKHNQLDDDIKTAEQQNASDAEVSHMKKQKLKLKDEIHSMIIEYREK

Variants of: B1
Assay: folding stability dG (cDNA display proteolysis); higher = more stable
Settings: PBS, room temperature

Folding stability dG [kcal/mol] of substitutions, site by site:
K19: V 0.316, L 0.515, Q 0.953, W 1.3, N 0.558, M 0.78, T 0.755, S 0.513, C 1.32, F 1.37, G 0.004, A 1.13, D 0.823, H 0.901, Y 1.52, I 0.622, R 1.15, E 1.1
A12: N 0.287, C 1.42, F 0.361, V 0.253, Y 0.632, E 0.524, D 0.188, Q 0.395, G 0.257, H 0.398, T 0.659, M 0.648, L 0.297, I 0.482, P -0.496, R 0.983, K 1.07, S 0.404, W -0.494
S8: R 1.26, D 0.953, I 0.988, T 1.08, M 1.4, W 1, K 1.21, F 1, N 0.922, Q 1.11, P -0.067, C 1.67, V 0.784, H 0.57, Y 0.782, E 1.32, L 1.21, A 1.56, G 0.671
K11: G -0.572, I 0.839, C 1.05, Y -0.334, W -0.052, F 0.176, M 0.616, Q 0.591, S 0.169, A 0.308, D -0.966, P -0.825, L 1.07, R 1.96, V 0.083, T -0.058
Q26: F -0.21, A 0.273, I -0.025, E -0.511, D 0.206, L 0.746, K 1.07, H -0.231, C -0.127
V9: A 1.16, C 1.91, H 1.49, S 0.824, D 0.497, F 2.05, L 1.23, T 0.509, G 0.417, W 2.46, R 1.01, K 1.37, Q 1.05, M 1.07, N 0.901, I 1.06, E 0.933
E22: N 1.34, R 1.57, D 0.198, I 0.633, S 1.19, Y 0.584, G 0.979, M 1.27, T 1.26, C 0.723, W 0.419, V 0.395, Q 1.44, K 1.57, L 1.04, F 0.764, H 0.392, A 1.32
F21: W 1.79, H -0.017, M 0.443, V 0.263, L 0.554, Y 0.959, T -0.186, I 0.372, S 0.151, C 0.68
N25: V 0.471, I 0.737, G -0.067, A 1.03, Q 1.29, S 0.766, R 1.59, Y 0.277, L 1.14, F 0.65, H 0.533, K 1.42, D 0.646, C 1.41, E 0.44, T 0.573, M 0.989, W 0.642
H16: E 0.338, M -0.101, S -0.066, T 0.264, Q 0.27, I 0.609, G -0.149, K 0.147, N -0.56, C 0.932, W 1.1, F 0.373, L 0.427, D -0.361, Y 1.53, V 0.505, A 0.24, R 0.534
F17: G -0.943, P -0.525, E -0.562, R -0.98, C -0.409
N13: R 1, D 0.311, T 1.39, F 0.565, W 1.06, H 0.775, K 0.586, A 0.764, V 0.458, G 0.346, Q 1.22, I 1.31, M 1.33, E 0.701, L 1.44, S 0.889, Y 0.635
I20: M -0.166, V 0.461, T -0.398, Y -0.117, A -0.159, L 0.743, C -0.061
H24: S 0.609, F 2.06, L 1.68, T -0.497, M 1.74, I 1.22, Y 2.15, W 1.64, K -0.319, C 1.86, R -0.124, A 0.782, Q 0.285, V 0.939
E6: D 0.718, W 1.55, M 1.46, N 0.08, L 1.76, H 0.158, C 1.95, S 0.271, K -0.498, P 0.04, T 1.14, A 1.3, G -0.608, F 1.4, Q -0.376, R 0.234, V 1.5, I 2.1, Y 1.42
L10: V -0.406, I 0.415, A -0.294, S -0.995, G -0.111, Y -0.44, W -0.69, M -0.173, C 0.629
D5: Y 1.53, Q 0.415, H 1.23, F 1.36, P -0.163, M 0.985, A 0.255, L 0.917, S 0.508, N 0.625, K 0.902, G 0.455, T 0.722, V 0.719, R 0.858, I 1.04, E 0.721, W 1.47
N14: D 0.835, V -0.058, Q -0.421, M -0.831, L -0.009, A -0.402, E -0.24, H -0.133, Y 0.963, W 1, I -0.077, F 0.397, S 0.54
K23: M 1.58, D 0.146, A 0.787, T 0.355, Y 1.02, L 1.55, S 0.339, Q 1.33, E 1.16, I 0.915, W 1.28, H 0.386, C 0.886, V 0.152, N 0.111, F -0.019, R 0.933
I7: W 0.295, E -0.7, T -0.043, M -0.64, C 1.14, K -0.95, R -0.653, Y 0.804, A -0.185, L 0.235, N -0.499, H -0.334, V 0.475, F 0.109
D18: C 1.97, F 2.03, I 1.43, Q 1.95, H 1.62, V 1.68, L 2.42, T 1.35, A 2.29, N 1.74, R 2.46, E 1.35, K 2.23, S 1.56, W 1.77, M 2.03, G 1.16, Y 1.95
P15: D 0.108, L 0.336, G 0.048, S 0.822, Y -0.634, N 0.045, K 0.313, I 0.31, W 0.335, E 0.365, Q 0.122, R 0.029, C 0.845, A 0.443, M 0.07, H 0.38, V 0.356, T 0.292, F -0.013
R4: Y 1.25, W 1.49

From the MegaScale stability set (Tsuboyama et al. 2023)
